In patent US9260754B2, “Connexin mutation detection for lymphatic variation and disease” (University of Pittsburgh—Of the Commonwealth System of …, priority 2010, dated 2016):
“Also recorded” adds a separate entry of the source.

B1: G146S: Cx47 missense mutant G146S (436G>A), intracellular loop, construct expressed in HeLa cells or LECs (protein, listed as Homo sapiens)
chain: MSWSFLTRLLEEIHNHSTFVGKVWLTVLVVFRIVLTAVGGEAIYSDEQAKFTCNTRQPGCDNVCYDAFAPLSHVRFWVFQIVVISTPSVMYLGYAVHRLARASEQERRRALRRRPGPRRAPRAHLPPPHAGWPEPADLGEEEPMLSLGEEEEEEETGAAEGAGEEAEEAGAEEACTKAVGADGKAAGTPGPTGQHDGRRRIQREGLMRVYVAQLVARAAFEVAFLVGQYLLYGFEVRPFFPCSRQPCPHVVDCFVSRPTEKTVFLLVMYVVSCLCLLLNLCEMAHLGLGSAQDAVRGRRGPPASAPAPAPRPPPCAFPAAAAGLACPPDYSLVVRAAERARAHDQNLANLALQALRDGAAAGDRDRDSSPCVGLPAASRGPPRAGAPASRTGSATSAGTVGEQGRPGTHERPGAKPRAGSEKGSASSRDGKTTVWI
B2: WT-hCx47: human wild type Cx47 construct in bicistronic pIRES2-EGFP vector, expressed in HeLa cells or LECs (protein, UniProt Q5T442 1-439, looked up)
Gap junction gamma-2 protein: MTNMSWSFLTRLLEEIHNHSTFVGKVWLTVLVVFRIVLTAVGGEAIYSDEQAKFTCNTRQPGCDNVCYDAFAPLSHVRFWVFQIVVISTPSVMYLGYAVHRLARASEQERRRALRRRPGPRRAPRAHLPPPHAGWPEPADLGEEEPMLGLGEEEEEEETGAAEGAGEEAEEAGAEEACTKAVGADGKAAGTPGPTGQHDGRRRIQREGLMRVYVAQLVARAAFEVAFLVGQYLLYGFEVRPFFPCSRQPCPHVVDCFVSRPTEKTVFLLVMYVVSCLCLLLNLCEMAHLGLGSAQDAVRGRRGPPASAPAPAPRPPPCAFPAAAAGLACPPDYSLVVRAAERARAHDQNLANLALQALRDGAAAGDRDRDSSPCVGLPAASRGPPRAGAPASRTGSATSAGTVGEQGRPGTHERPGAKPRAGSEKGSASSRDGKTTVWI

Key:
Type in all cases: cell-based, human
HeLa cells [1] = experiment: Cx47 gap junction plaque formation by immunofluorescent confocal microscopy in transfected HeLa cells; details: near confluent transfected HeLa cells
Experimental: Human neonatal foreskin was collected anonymously as discarded tissue according to an IRB protocol. Samples were collected immediately after harvest in DMEM, then fixed in 2% paraformaldehyde for 2 hrs, then stored in 30% sucrose in 1×PBS overnight for cryosectioning, and sectioned in 6 μm slices at −30° C. Transfected (stable and transient) and untransfected HeLa cells were grown to near confluence in coverslip bottom dishes. All cells were rinsed with PBS and fixed with 2% paraformaldehyde. Subsequently, tissue and HeLa cells were processed similarly: following permeabilization with 0.1% Triton X, cells were blocked with 2% BSA. A human Cx47 antibody (ab) was obtained from the S. Scherer laboratory: polyclonal rabbit against amino acids 344-399 in the cytoplasmic C-terminal tail; we used human CNS tissue and positive oligodendrocyte staining as a positive control and primary antibody delete and rabbit IgG as negative controls (data not shown). Cx47 ab was diluted in 0.5% BSA in a 1:200 ratio, applied to cells and incubated at RT for one hour. Mouse monoclonal Proxl (Chemicon) was used as a lymphatic marker for the foreskin samples. Cells were incubated with the secondary abs (Donkey Anti-Rabbit Cy5 and Donkey Anti-Mouse Cy3; Invitrogen) for one hour at RT and washed; Draq5 was used as a nuclear marker. HeLa images were acquired with an inverted Olympus Fluoview 1000 Confocal Microscope 100× oil, 1.4 NA objective. Foreskin images were acquired on a Zeiss Meta LSM 510 inverted confocal microscope with 40× oil, 1.3 N.A. objective. LECs (primary human microvascular adult dermal lymphatics; Lonza) were grown in fibronectin coated coverslip bottom MatTeks dishes in EGM™-2 MV—Microvascular Endothelial Cell Medium-2 (Lonza Inc.) to approximately 80% confluence, and prepared similarly but a commercially available (AbCam) Cx47 ab, polyclonal rabbit against amino acids 41-70 in the human sequence was used along with Drag 5 nuclear marker and phalloidin to mark f-actin.
Immunofluorescence microscopy determines the presence or absence of Cx47 gap junction plaques when the constructs are transiently expressed in HeLa cells. Cx plaques reflect a physiologic accumulation of Cx channels in the cell membrane between cells (tens to thousands of channels); thus plaques are indicative of normal trafficking and gap junction formation at the cell membrane.
Immunofluorescence microscopy determines the presence or absence of Cx47 gap junction plaques when the constructs are transiently expressed in HeLa cells. A human Cx47 antibody was obtained: polyclonal rabbit against amino acids 344-399 in the cytoplasmic C-terminal tail (Orthmann-Murphy J L, et al. Mol Cell Neurosci 2007; 34:629-41); we used human CNS tissue and positive oligodendrocyte staining as a positive control and primary antibody delete as a negative control (data not shown). Cultured HeLa cells were routinely fixed and stained with the primary antibodies against Cx47, along with a nuclear marker, and transfected cells were identified by their EGFP signal. Plaques were imaged using an Olympus Fluoview 1000 confocal microscope, 100× oil objective.

HeLa cell pairs = experiment: Dual whole cell patch clamp recording of coupling current in transfected HeLa cell pairs; details: for elect coupling: Table 3 (Example 2); for elect coupling / electrical coupling: HeLa cell pairs, 100 mV step, mean ± SEM; for electrical coupling: Table 6 (Example 4); for electrical coupling / functional channels in HeLa cell pairs (in words): transfected HeLa cell pairs, voltage step protocol −100 to +100 mV
Experimental: Coupling currents were recorded using simultaneous double whole-cell patch clamp recordings from isolated pairs of cells that were in contact with one another (determined visually) as previously described. Briefly, the pipette solution consisted of (mM): 130 CsCl, 10 EGTA, 10 HEPES, 3 Mg-ATP, 2 Na-ATP, 0.5 CaCl2, pH 7.3. The culture was bathed in a solution consisting of (mM): 140 NaCl, 5 HEPES, 5 glucose, 4 KCl, 2 CsCl, 2 CaCl2, 2 pyruvate, 1 BaCl2, pH 7.3. Transfected HeLas undergo electrophysiologic analysis in a blinded manner. Pairs of cells were chosen for study only if both expressed the GFP marker indicative of successful transfections; both stable and transient transfectants were analyzed. Patch pipettes were fabricated from borosilicate glass, and coupling currents were amplified by Axopatch 200A amplifiers, filtered at 1 KHz, and digitized at 5 KHz for subsequent analysis using pClamp software (Axon Instruments/Molecular Devices; Sunnyvale, Calif.). All experiments were carried out at room temperature (22° C.). Coupling current was quantified by measuring the peak current recorded in the pair when the neighboring cell received a 100 mV step membrane potential change (in both positive and negative directions). Step changes in membrane potential were delivered to each cell in the pair in sequence and the average current recorded in the neighboring cell was determined and divided by 100 to generate coupling current expressed in pA/mV. Means±SEM were calculated and statistical significance using a one-way analysis of variance and Tukey's post-hoc test, p<0.05.
Coupling current is quantified by measuring the peak current recorded in the pair when the neighboring cell receives a 100 mV step membrane potential change (in both positive and negative directions). Step changes in membrane potential are delivered to each cell in the pair in sequence and the average current recorded in the neighboring cell determined and divided by 100 to generate coupling current expressed in pA/mV (FIG. 6C). Replicate measurements (n=3-6) are made on at least two different days. […] The untransfected HeLa cell pairs also show minimal channel function, as predicted.
Electrophysiologic characteristics of GJIC were measured between HeLa cell pairs transfected with the mutant constructs (as indicated by EGFP expression) by dual whole cell patch clamp recording. All experiments were carried out in a blinded manner. Coupling current is quantified by measuring the peak current recorded in the pair when the neighboring cell receives a 100 mV step membrane potential change (in both positive and negative directions). Step changes in membrane potential are delivered to each cell in the pair in sequence and the average current recorded in the neighboring cell determined and divided by 100 to generate coupling current expressed in pA/mV. Untransfected HeLa cells and cells transfected with empty vector (i.e., no hCx47) were used as additional controls.

HeLa cells [2] = experiment: Wound assay (proliferation/migration) in confluent transfected HeLa cells; details: for wound assay: fraction of original wound in HeLa cell monolayer after 24 hrs, mean ± SEM
Experimental: The wound assay, a measure of proliferation/migration, was performed using differential interference contrast time lapse of over 24 hrs using confluent transfected HeLa cells. Analysis was done using TScratch (Geback T, et al. TScratch: a novel and simple software tool for automated analysis of monolayer wound healing assays. Biotechniques 2009; 46:265-74), mean±SEM of at least 10 positions along wound; the scrape width was normalized to the first image for each position. In all cases a two tailed student's T test was applied with p<0.05 considered significant.

Molecule	Cx47 plaque formation (in words) (HeLa cells [1])	elect coupling (HeLa cell pairs)	electrical coupling (HeLa cell pairs)	electrical coupling / functional channels in HeLa cell pairs (in words) (HeLa cell pairs)	wound closure compared to WT-hCx47-EGFP transfected cells (in words) (HeLa cells [2]; HeLa cells, cell scratch assay)	wound assay (HeLa cells [2])	Cx47 plaque formation (in words) (HeLa cells [1]; listed as WT-hCx47-EGFP)	electrical coupling / functional channels in HeLa cell pairs (in words) (HeLa cell pairs; listed as WT hCx47)	electrical coupling / functional channels in HeLa cell pairs (in words) (HeLa cell pairs; listed as WT-hCX47-EGFP)
B1	Cx47 intercellular plaques	16.2 pA/mV	32.4 pA/mV	well coupled	faster wound closure; also recorded: more rapid closure	0.62	–	–	–
B2	Presence	31.6 pA/mV	35.9 pA/mV	show evidence of voltage-dependent gating	–	0.72	Cx47 intercellular plaques	well coupled	well coupled
